In article PMC10876603:

Target: microtubules (polymerised α/β-tubulin) (UniProt Q6B856)
Sequence of UniProt Q6B856 (Q6B856 whole entry, looked up): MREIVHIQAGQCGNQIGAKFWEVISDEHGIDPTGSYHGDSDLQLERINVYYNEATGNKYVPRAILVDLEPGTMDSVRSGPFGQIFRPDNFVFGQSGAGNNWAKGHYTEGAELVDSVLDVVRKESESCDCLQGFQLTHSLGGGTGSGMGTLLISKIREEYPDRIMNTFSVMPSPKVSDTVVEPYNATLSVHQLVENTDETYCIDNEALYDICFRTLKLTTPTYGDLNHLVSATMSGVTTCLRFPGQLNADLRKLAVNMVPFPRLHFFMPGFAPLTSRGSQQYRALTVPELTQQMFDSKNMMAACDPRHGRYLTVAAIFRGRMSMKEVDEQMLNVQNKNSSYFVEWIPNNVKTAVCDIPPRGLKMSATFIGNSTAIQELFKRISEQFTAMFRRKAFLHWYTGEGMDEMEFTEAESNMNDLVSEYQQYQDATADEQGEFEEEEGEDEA

human CEN subcomplex with Borealin R17E, R19E, K20E (CEN-Borealin^MTBM) (from UniProt Q9NQS7 1-58; O15392 1-142; Q53HL2 1-280)
width of bundles of GMpCpp-stabilized rhodamine-labeled MTs (100 nM) after 2 min with 4 μM CEN, TIRF microscopy (single GMpCpp MTs measure 0.34 μm): 0.36 μm
